{"source": "the DeepSol protein solubility set", "data": [{"assay": "soluble on expression in E. coli; label from the status in PepcDB or PDB records", "values": [{"sequence": "GHHHHHHAIAENLYFQSDLFETSQIEKLLESLENYQPAFPDALVRYYLAKSGFQTDDIRAERLVALAAQKFVADVANDALNHVKLRQQSQATSKKSKENEVILTVEDLSKALEEYGVHLKKPPYYVDSPVVGVGSANLKKRKTEQVTSVKPEEKSLEGKEVFKEEPKEEDKELTQEPENV", "soluble on expression in E. coli": "soluble"}, {"sequence": "GHHHHHHAIAENLYFQSKFLDVECLSELQRKLNDLELTDYRVRCQLEAYSCKPAGFDKKLSKSLEQKLVEQLEASPRVLEGSPVGSLEDQSARKTLINLICTLNAAHQDYDFSSLQLSRLKRVQDVRSLQQHVDSLFELFYRQLGLEFRQFLWENIGQIIRPEECEVYSYLPDYESDPYSASGALWSFCYFFYHKNMKKILFFSCTLSTRLAEDSESTESVDEEDFGKESSGLETPFAMFETVI", "soluble on expression in E. coli": "not soluble"}, {"sequence": "GHHHHHHAIAENLYFQSNSHDGSNFSNKFSAHKDVVEDLLRKDTVGLVTFQDFRARREYLERCAVAEAACQNASRRAEELETKKKRVKRANLSRLSFGDSLEDQEENSVEFAKITRFASSKKANGVGFNTSGQDIVKEPDVFSPKEEGFFGKQNRKIGMDPGVDTSFLPDRDREQEERLERERLKQQWLSEQERVKNEEIDIIYSIWDGRGQRKLLSCKKGTTIAKFLSIVQQKVSTLKHCKVEDLMFIKEDMIIPHHLSFYDLISMKARGKNGSLFCFDVHEDIRIRNDASVEKDDSHAAKVVERRWYERNKHIYPASMWEVFDVSKNYGRVQKDFFGN", "soluble on expression in E. coli": "not soluble"}, {"sequence": "GHMDVGERSSDQGTTVLTEAQRIDWMRLIRAENVGPRTFRSLINHFGSARAALERLPELARRGGAARAGRIPSEDEARREIEAGRRIGVELVAPGETGYPTRLATIDDAPPLLGVHALPEALAVMARPMIAIVGSRNASGAGLKFAGQLAADLGAAGFVVISGLARGIDQAAHRASLSSGTVAVLAGGHDKIYPAEHEDLLLDIIQTRGAAISEMPLGHVPRGKDFPRRNRLISGASVGVAVIEAAYRSGSLITARRAADQGREVFAVPGSPLDPRAAGTNDLIKQGATLITSASDIVEAVASILERPIELPGREPEHAPPEGEPDTGDRTRILALLGPSPVGIDDLIRLSGISPAVVRTILLELELAGRLERHGGSLVSLS", "soluble on expression in E. coli": "soluble"}, {"sequence": "GHMIQESTMEMTNAQRLILSNQYKMMTMLDPANAERYRRLQTIIERGYGLQMRELDREFGELKEETCRTIIDIMEMYHALHVSWSNLQDQQSIDERRVTFLGFDAATEARYLGYVRFMVNVEGRYTHFDAGTHGFNAQTPMWEKYQRMLNVWHACPRQYHLSANEINQIINA", "soluble on expression in E. coli": "soluble"}, {"sequence": "GHMLWARLVGLARLEARALSKKERRSLLERLKPYYTRIPFSEKADLRLVKARTDSGEYEIITVDGVPCLFEWSDGRIYPTLQCLKAFGVDWLKGVVLVDKGAAIALAKGAHLMIPGVVGVEGSFTRGDVVAALYHETRTPVMVGVAEVDSSALEKLYREKARGRAVRRVHRLGDALWELAQEVGKRLSGS", "soluble on expression in E. coli": "soluble"}, {"sequence": "GHMSGFKHVSHVGWDPQNGFDVNNLDPDLRSLFSRAGISEAQLTDAETSKLIYDFIEDQGGLEAVRQEMRRQ", "soluble on expression in E. coli": "soluble"}, {"sequence": "GHVLLLRPVRSEDVEPLQGVFALMGPQEIRERFAPSATGSSERFQQLTNPNAKREIVLVAAEQLPPGEAMIAALARASIVPNSRHAEYIILVSSFVSGQGLGRQLLRKLVKWARGKYLDHLYGDILERNRPMLELAESLGFQRESHPESPDLVRMTLKL", "soluble on expression in E. coli": "not soluble"}, {"sequence": "GIDPFTRDGPLVLIGSGLSSEQQKMLSELAVILKAKKYTEFDSTVTHVVVPGDAVQSTLKCMLGILNGCWILKFEWVKACLRRKVCEQEEKYEIPEGPRRSRLNREQLLPKLFDGCYFYLWGTFKHHPKDNLIKLVTAGGGQILSRKPKPDSDVTQTINTVAYHARPDSDQRFCTQYIIYEDLCNYHPERVRQGKVWKAPSSWFIDCVMSFELLPLDS", "soluble on expression in E. coli": "soluble"}, {"sequence": "GISVDKRIEQATSDFLAAAQAIDLQEHLISGYRSVDYQTELYQSYIKKEMANDPTLTQEAAEALVQTYSQPPGASEHHTGLAIDMSTVDTLNASDPSVAKAVQKIAPDYGFVLRFPEGKKTSTGVDYEDWHYRYVGKASARYMAQHNLTLEEYIAALKEKR", "soluble on expression in E. coli": "not soluble"}, {"sequence": "GKPFYYDVNFNLADSRAYITKYENPKGLLGDYYVGKEIGEIWGVETLGFFTSEEDIKNHADQSWCTSYPGTRPLAPGDLKFKDENKDGKITDGAWTLEDHGDYKIIGNSRARYTFGLSANAQWNGFDLSLFAQGVGKKDYYPGTGDLYFWGIYAQPWTNITKGNMYDHWTEENPDAYFPRMKAYVAENTDRECGVVQTRYLQNAAYMRLKNLTVGYTLPKVLLNKIGIERLRIFFSGDNLCEFSGLYKHYKVDPESLGNIVYPLQRSYSFGLNVTF", "soluble on expression in E. coli": "not soluble"}, {"sequence": "GKVEERWTKTTDGKQMLSWVIYPVNFDANKKYPTLLFCEGGPQSPVSQFWSYRWNFQIMAANDYIIIAPNRRGLPGFGMEWLEQISGDYGGQCMKDYLSAIDDISKEPYVDTNRLGCVGASFGGFSVYWLAGHHDKRFKAFIAHDGIFNMEQQYLETEEMWFANWDMGGAYWDKNNATAQRTFANSPHRFVDKWDTPILCIHGEKDYRILASQGMSAFNAAVLRGVPAELLLYPDENHWVLKPQNGVLWQRTFFSWLDKWLK", "soluble on expression in E. coli": "not soluble"}, {"sequence": "GLLAFFMVIAVSVGGLTQIVPLFFQDVTNKPVEGMKPRTALEVEGRDIYIREGCVGCHSQMIRPFRAETERYGHYSVAGESVWDHPFLWGSKRTGPDLARVGGRYSDDWHRAHLYNPRNVVPESKMPSYPWLVENKLDGKDTAKKMEVLRTLGTPYTDADIAGARDAVKGKTEMDAIVAYLQGLGT", "soluble on expression in E. coli": "not soluble"}, {"sequence": "GMAINIIEYNRSYKEELIEFILSIQKNEFNIKIDRDDQPDLENIEHNYLNSGGQFWLAINNHQNIVGTIGLIRLDNNMSALKKMFVDKGYRNLKIGKKLLDKVIMTCKEQNIDGIYLGTIDKFISAQYFYSNNGFREIKRGDLPSSFPKLDVDNRFYYRNLKD", "soluble on expression in E. coli": "soluble"}, {"sequence": "GMARLKNLPQERPLPLASLIEARENQVLSMALAQSDRVQISLFSFADGESVSEEEYFGDTLYLILQGEAVITFDDQKIDLVPEDVLMVPAHKIHAIAGKGRFKMLQITLIDEER", "soluble on expression in E. coli": "soluble"}, {"sequence": "GMASAIIETAIPQSEMTASATSEEGQDPASSAIDGNINTMWHTKWNGSDALPQSLSVNLGKARKVSSIAITPRTSGNNGFITKYEIHAINNGVETLVAEGTWEENNLVKTVTFDSPIDAEEIKITAIQGVGGFASIAELNVYE", "soluble on expression in E. coli": "soluble"}, {"sequence": "GMCVEKTPWELVIDFHGHTCPDIALGYRIAQLAQREMGIRPAPDSECLVKAYTQSCALDAIQVLNKATIGRHALIIEETHRYMYQFHFTGTQDIHQFTVSPAVLDHLETLRHPDLSPRERQNKVLEGVQYVLTLEESAFCHYDKIPGQLSKIV", "soluble on expression in E. coli": "soluble"}, {"sequence": "GMDKYLSANSLEGVIDNEFSMPAPRWLNTYPAGPYRFINREFFIIAYETDPDLLQAILPPDMELLEPVVKFEFIRMPDSTGFGDYTESGQVVPVRYKGEEGGFTISMFLDCHAPIAGGREIWGFPKKLAKPKLFVEEDTLIGILKYGSIDIAIATMGYKHRPLDAEKVLESVKKPVFLLKNIPNVDGTPLVNQLTKTYLTDITVKGAWTGPGSLELHPHALAPISNLYIKKIVSVSHFITDLTLPYGKVVADYLA", "soluble on expression in E. coli": "soluble"}, {"sequence": "GMEGSLSRGVEIMKLRELVARSRSIRRFDEHVAVNDATLRDLVELVCYTPSAANRQLLRFLPVTGADMSDKVFPCLKWAGYLEDWPGPEPGERPAAALVMLCRNEDLPGAACDSGIAAQTIMLGAAEKELGGCIVAAIDRERLMASLGIPDAWTVLLVIALGKPAETVVIDQIKPGDDIRYWRDKHGIHHVPKRQVDELLVTAEQLRERG", "soluble on expression in E. coli": "soluble"}, {"sequence": "GMEPTRKRKSAGGKPKGKGGWGDRKSGGWRGDHKPSKEGFGGKTRGEGFKKEGFKRDGFKKTGEGFKGKRKAGDSFAGKGERRYKDR", "soluble on expression in E. coli": "not soluble"}, {"sequence": "GMHLKEKITTIIQGQRTGVLSTVRNDKPHSAFMMFFHEDFVLYVATDRQSKKITDIENNPNVHVLLGREGKKLDEDYIEVEGLASIEEDSTLKNKFWNNSLKRWLLRPEDPNYVLIKINPDTIYYIDGAGTTEPEFLRL", "soluble on expression in E. coli": "soluble"}]}]}
